Assay results as given in patent US8951961B2, “Structural and mechanistic basis for novel compound biosynthesis using 4-electron hexose oxidase” (Academia Sinica, priority 2009, dated 2015).
Substitutions are numbered along the chain they refer to. In names and notes the source's numbering stands. In brackets after ≈: the same amount, converted by molar mass.

B1: W399A (protein)
chain: MTGGTGADAASAGASSTRPELRGERCLPPAGPVKVTPDDPRYLNLKLRGANSRFNGEPDYIHLVGSTQQVADAVEETVRTGKRVAVRSGGHCFEDFVDNPDVKVIIDMSLLTEIAYDPSMNAFLIEPGNTLSEVYEKLYLGWNVTIPGGVCGGVGVGGHICGGGYGPLSRQFGSVVDYLYAVEVVVVNKQGKARVIVATRERDDPHHDLWWAHTGGGGGNFGVVTKYWMRVPEDVGRNPERLLPKPPATLLTSTVTFDWAGMTEAAFSRLLRNHGEWYERNSGPDSPYTGLWSQLMIGNEVPGMGESGFMMPIQVDATRPDARRLLDAHIEAVIDGVPPAEVPEPIEQRWLASTPGRGGRGPASKTKAGYLRKRLTDRQIQAVYENMTHMDGIDYGAVALIGYGGKVNTVDPAATALPQRDAILKVNYITGWANPGNEAKHLTWVRKLYADVYAETGGVPVPNDVSDGAYINYPDSDLADPGLNTSGVPWHDLYYKGNHPRLRKVKAAYDPRNHFHHALSIRP
B2: I401A (protein)
chain: B1 chain with A399W, I401A
B3: Y428F/Y453F (protein)
chain: B1 chain with A399W, Y428F, Y453F
B4: R360L/T366E (protein)
chain: B1 chain with R360L, T366E, A399W
B5: R41A/N44A (protein)
chain: B1 chain with R41A, N44A, A399W
B6: T366L (protein)
chain: B1 chain with T366L, A399W
B7: H91A/C151A (protein)
chain: B1 chain with H91A, C151A, A399W
B8: R360L/T366A (protein)
chain: B1 chain with R360L, T366A, A399W
B9: Y470F (protein)
chain: B1 chain with A399W, Y470F
B10: Y473F (protein)
chain: B1 chain with A399W, Y473F
B11: R41A (protein)
chain: B1 chain with R41A, A399W
B12: N44A (protein)
chain: B1 chain with N44A, A399W
B13: R360E (protein)
chain: B1 chain with R360E, A399W
B14: Y428F (protein)
chain: B1 chain with A399W, Y428F
B15: Y165F (protein)
chain: B1 chain with Y165F, A399W
B16: T366A (protein)
chain: B1 chain with T366A, A399W
B17: C26A (protein)
chain: B1 chain with C26A, A399W
B18: H91A (protein)
chain: B1 chain with H91A, A399W
B19: W399F (protein)
chain: B1 chain with A399F
B20: T366E (protein)
chain: B1 chain with T366E, A399W
B21: C92A (protein)
chain: B1 chain with C92A, A399W
B22: Y403F (protein)
chain: B1 chain with A399W, Y403F
B23: Y165F/Y473F (protein)
chain: B1 chain with Y165F, A399W, Y473F
B24: Y370F/Y403F (protein)
chain: B1 chain with Y370F, A399W, Y403F
B25: C151A (protein)
chain: B1 chain with C151A, A399W
B26: R360L (protein)
chain: B1 chain with R360L, A399W
B27: S364K (protein)
chain: B1 chain with S364K, A399W
B28: C161A (protein)
chain: B1 chain with C161A, A399W
B29: Y370F (protein)
chain: B1 chain with Y370F, A399W
B30: I401W (protein)
chain: B1 chain with A399W, I401W
B31: S364R (protein)
chain: B1 chain with S364R, A399W
B32: Y453F (protein)
chain: B1 chain with A399W, Y453F
B33: R360E/T366E (protein)
chain: B1 chain with R360E, T366E, A399W
B34: Y165W (protein)
chain: B1 chain with Y165W, A399W

Experiments:
E. faecalis ATCC 700221 = assay: Minimum Inhibition Concentrations (MICs) Test; type: cell-based, Enterococcus Faecalis
E. faecalis ATCC 51559 = assay: Minimum Inhibition Concentrations (MICs) Test; type: cell-based, Enterococcus Faecalis
S. Aureus ATCC 700699 = assay: Minimum Inhibition Concentrations (MICs) Test; type: cell-based, Staphylococcus Aureus
E. faecalis (ATCC 51559) = assay: In vivo animal study, sepsis in mice; set-up: species or system ICR female mice; conditions: 10 mg/kg/dose i.v. twice a day, day 1 to day 3
Procedure: 12 ICR female mice with an average body weight of 27 g to 30 g were used in this experiment. Mice had free access to water and food at all time. Sepsis was induced in mice by intravenous (i.v.) injection of […] cfu/mouse of E. faecalis (ATCC 51559) on day 0. The mice were randomized into the following four treatment groups at the start of the experiment:
Each mouse received 10 mg/kg/dose of the medication by intravenous route, twice a day from day 1 to day 3, for a total of 6 doses. Mice were anesthetized and blood was taken from the orbital sinus on day 1, day 2, and day 3. The blood sample was diluted with PBS, plated on Brain Heart infusion agar (BHI agar; Difico, Detroit, Mich., USA) and cultured for colony formation unit.
Data were expressed as mean±SD and the statistical analysis was performed using SigmaStat®. Differences were considered to be significant if the P value was <0.05.

S. Aureus ATCC 29213 = assay: Minimum Inhibition Concentrations (MICs) Test; type: cell-based, Staphylococcus Aureus
E. faecalis ATCC 29302 = assay: Minimum Inhibition Concentrations (MICs) Test; type: cell-based, Enterococcus Faecalis
E. faecalis ATCC 51299 = assay: Minimum Inhibition Concentrations (MICs) Test; type: cell-based, Enterococcus Faecalis
E. faecalis ATCC 33186 = assay: Minimum Inhibition Concentrations (MICs) Test; type: cell-based, Enterococcus Faecalis
Dbv29 = assay: Relative enzymatic activities of Dbv29 mutants; type: biochemical, Nonomuraea sp. ATCC39727; conditions: for Relative activity: relative to WT

| Molecule | Relative activity (Dbv29) | also measured |
| --- | --- | --- |
| Teicoplanin [Compound 4] |  | MIC (E. faecalis ATCC 700221; E. faecalis ATCC 700221, resistant to vancomycin): >32 µg/mL; MIC (E. faecalis ATCC 51559; E. faecalis ATCC 51559, multidrug-resistant strain (VRE)): >32 µg/mL; MIC (S. Aureus ATCC 700699; S. Aureus ATCC 700699, resistant to methacillin, reduced vancomycin susceptibility): 8 µg/mL; whole blood bacterial counts over the 3-day period (E. faecalis (ATCC 51559)): suppressed; MIC (S. Aureus ATCC 29213; S. Aureus ATCC 29213, methacillin-sensitive strain): 0.5 µg/mL; MIC (E. faecalis ATCC 29302; E. faecalis ATCC 29302, standard strain, no growth in duplicate): 0.125 µg/mL; MIC (E. faecalis ATCC 51299; E. faecalis ATCC 51299, low level VRE): 0.5 µg/mL; MIC (E. faecalis ATCC 33186; E. faecalis ATCC 33186, antibiotics sensitive strain): 0.25 µg/mL |
| CN[C@H](CC(C)C)C(=O)N[C@H]1C(=O)N[C@@H](CC(N)=O)C(=O)N[C@H]2C(=O)N[C@H]3C(=O)N[C@H](C(=O)N[C@H](C(=O)O)c4cc(O)cc(O)c4-c4cc3ccc4O)[C@H](O)c3ccc(c(Cl)c3)Oc3cc2cc(c3O[C@@H]2O[C@H](CO)[C@@H](O)[C@H](O)[C@H]2O[C@H]2C[C@](C)(N)[C@H](O)[C@H](C)O2)Oc2ccc(cc2Cl)[C@H]1O [Compound 1, vancomycin] |  | MIC (E. faecalis ATCC 700221; Enterococcus faecalis, ATCC700221): > 64 µg/mL; MIC (E. faecalis ATCC 51559; Enterococcus faecalis, ATCC 51559 / VRE): > 32 µg/mL; MIC (S. Aureus ATCC 700699; Staphylococcus aureus, ATCC700699): 16 µg/mL (≈ 11 µM); whole blood bacterial counts over the 3-day period (E. faecalis (ATCC 51559)): suppressed; MIC (S. Aureus ATCC 29213; Staphylococcus aureus, ATCC29213): 1 µg/mL (≈ 0.69 µM); MIC (E. faecalis ATCC 29302; Enterococcus faecalis, ATCC29302): 1 µg/mL (≈ 0.69 µM); MIC (E. faecalis ATCC 51299; Enterococcus faecalis, ATCC 51299 / VRE): > 64 µg/mL; MIC (E. faecalis ATCC 33186; Enterococcus faecalis, ATCC33186): 4 µg/mL (≈ 2.76 µM) |
| B1 |  | catalytic activity (Dbv29): no product was produced |
| B2 | 0.09 |  |
| B3 | 1.08 |  |
| B4 | 0.01 |  |
| B5 | 0.59 |  |
| B6 | 0.13 |  |
| B7 | 0.05 | activity relative to WT (Dbv29): 5% |
| B8 | 0.03 |  |
| B9 | 0.21 |  |
| B10 | 0.23 |  |
| B11 | 0.72 |  |
| B12 | 0.87 |  |
| B13 | 0.76 |  |
| B14 | 1.00 |  |
| B15 | 0.70 |  |
| B16 | 0.11 | activity relative to WT (Dbv29): 11% |

| Molecule | Relative activity (Dbv29) | also measured |
| --- | --- | --- |
| B17 | 1.11 |  |
| B18 | 0.11 | activity relative to WT (Dbv29): 11% |
| B19 | 0.16 | activity relative to WT (Dbv29): 15% |
| B20 | 0.05 | activity relative to WT (Dbv29): 5% |
| B21 | 0.95 |  |
| B22 | 0.65 |  |
| B23 |  | catalytic activity (Dbv29): total loss of catalytic activity |
| B24 | 0.05 |  |
| B25 | 0.23 | activity relative to WT (Dbv29): 23% |
| B26 | 0.23 |  |
| B27 | 0.04 |  |
| B28 | 0.84 |  |
| B29 | 0.10 |  |
| B30 | 0.02 |  |
| B31 | 0.08 |  |
| B32 | 0.82 |  |
| B33 | 0.03 |  |
| B34 | 0.03 |  |
